Assay results: patent USRE48137E1, “Multivalent vaccine protection from Staphylococcus aureus infection” (UNIVERSITY OF MARYLAND, BALTIMORE, priority 2012, dated 2020)

System: S. aureus MRSA-M2
Assay: murine tibial implant model of S. aureus infection
Format: in vivo
Details: C57BL/6 mice, tibiae CFU at 21 days post-challenge; 12.5 μg per antigen IP at 28 and 14 days prior to challenge
Description: Mice. Inbred C57BL/6 (6-8 weeks old) were purchased from Jackson Laboratories (Bar Harbor, Me.). Mice were maintained under micro-isolator conditions in the animal facility at the University of Maryland Dental School (Baltimore, Md.), in accordance with protocols reviewed and approved by the Institutional Animal Care and Use Committee (IACUC).
Bacterial strain and preparation of infectious inocula. […] Cells were centrifuged, rinsed with PBS, counted via a Petroff Hausser counter, and diluted to 1×10^6 CFU/ml. […]
Bone Cultures. […] In addition, non-vaccinated mice (alum alone) and mice vaccinated with the quadrivalent vaccine, the single additional antigen SA0119, or all antigens combined were euthanized at 21 days post infection and tibial colony-forming units (CFUs) were determined as described above. Dissemination of the S. aureus infection was monitored by homogenizing kidneys and plating the homogenates as described above.
Statistical Analysis. Mean and SD were calculated and analyzed using Student's t-test with a P value of <0.05 to determine statistical significance. Experiments determining the percentage of mice still infected after vancomycin or PBS treatment were analyzed using Fishers Exact test with a p value of <0.05 for statistical significance. […]

B1: SACOL0119 vaccine: planktonic-specific monovalent vaccine; S. aureus polypeptide SA0119, SEQ ID NO:14 (protein, listed as Staphylococcus aureus)
chain: MKKLATVGSLIVTSTLVFSSMPFQNAHADTTSMNVPNKQSQNVQNHRPYGGVVPQGMTQAQYTELEKTLPQLSAGSNMQDYNMKLYDATQNIADKYNVIITTNVGVFKPHAVRDMNGHALPLTKDGNFYQTNVDANGVNHGGSEMVQNKTGHMSQQDHMNQNTHMNQQPQIQQGHMQSSNHQMMSPKANMHSSNHQMNQSNKKVLPAAGESMTSSILTASIAALLLVSGLFLAFRRRSTNK
For B1, the “bacterial clearance (percent of animals cleared of S. aureus)” value was 40%.
